B1: BTE-0151 (bispecific antibody, human IgG1, kappa, L234A L235A)
heavy: QVQLQQWGAGLLKPSETLSLTCAVYGGSFSPYYWSWIRQPPGKGLEWIGEINHSGSTNYNPSLKSRVTISVDTSKNQFSLKLSSVTAADTAVYYCARRAGDFDYWGQGTLVTVSSASTKGPSVFPLAPSSKSTSGGTAALGCLVKDYFPEPVTVSWNSGALTSGVHTFPAVLQSSGLYSLSSVVTVPSSSLGTQTYICNVNHKPSNTKVDKKVEPKSCDKTHTCPPCPAPEAAGGPSVFLFPPKPKDTLMISRTPEVTCVVVDVSHEDPEVKFNWYVDGVEVHNAKTKPREEQYNSTYRVVSVLTVLHQDWLNGKEYKCKVSNKALAAPIEKTISKAKGQPREPQVYTLPPSRDELTKNQVSLSCAVKGFYPSDIAVEWESNGQPENNYKTTPPVLDSDGSFFLVSKLTVDKSRWQQGNVFSCSVMHEALHNHYTQKSLSLSPGK
light: not shown
scFv: not shown
notes: anti-CD37/anti-CD3
B2: BTE-0139 (bispecific antibody, human IgG1, kappa, L234A L235A)
heavy: B1 heavy
light: not shown
scFv: not shown
notes: anti-CD37/anti-CD3
B3: BTE-0146 (bispecific antibody, human IgG1, kappa, L234A L235A)
heavy: B1 heavy
light: not shown
scFv: not shown
notes: anti-CD37/anti-CD3
B4: BTE-0140 (bispecific antibody, human IgG1, kappa, L234A L235A)
heavy: B1 heavy
light: not shown
scFv: not shown
notes: anti-CD37/anti-CD3
B5: BTE-0147 (bispecific antibody, human IgG1, kappa, L234A L235A)
heavy: B1 heavy
light: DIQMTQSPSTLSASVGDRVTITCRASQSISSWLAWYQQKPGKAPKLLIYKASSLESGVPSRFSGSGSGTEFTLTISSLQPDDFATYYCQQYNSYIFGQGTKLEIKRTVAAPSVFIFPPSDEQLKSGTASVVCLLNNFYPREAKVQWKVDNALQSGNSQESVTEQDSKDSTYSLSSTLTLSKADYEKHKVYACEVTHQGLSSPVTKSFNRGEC
scFv: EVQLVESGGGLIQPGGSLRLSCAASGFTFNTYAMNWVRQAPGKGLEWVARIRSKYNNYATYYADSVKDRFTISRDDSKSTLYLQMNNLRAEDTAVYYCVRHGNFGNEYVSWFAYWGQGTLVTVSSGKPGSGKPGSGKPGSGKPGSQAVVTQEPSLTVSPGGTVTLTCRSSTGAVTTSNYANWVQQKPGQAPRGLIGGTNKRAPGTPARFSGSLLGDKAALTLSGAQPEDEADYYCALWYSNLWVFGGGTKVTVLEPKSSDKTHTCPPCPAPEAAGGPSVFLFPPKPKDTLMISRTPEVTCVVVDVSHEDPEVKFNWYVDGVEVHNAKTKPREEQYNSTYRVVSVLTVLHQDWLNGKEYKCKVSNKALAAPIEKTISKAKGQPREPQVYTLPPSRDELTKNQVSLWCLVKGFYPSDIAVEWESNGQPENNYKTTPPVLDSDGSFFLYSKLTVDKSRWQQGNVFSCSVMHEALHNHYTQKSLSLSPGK
notes: anti-CD37/anti-CD3
B6: BTE-0141 (bispecific antibody, human IgG1, kappa, L234A L235A)
heavy: B1 heavy
light: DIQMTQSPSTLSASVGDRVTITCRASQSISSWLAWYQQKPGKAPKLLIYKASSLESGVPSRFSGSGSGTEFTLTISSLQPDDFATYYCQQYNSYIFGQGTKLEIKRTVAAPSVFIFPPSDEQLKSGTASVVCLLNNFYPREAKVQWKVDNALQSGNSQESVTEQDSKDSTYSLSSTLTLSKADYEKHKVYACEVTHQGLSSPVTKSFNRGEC
scFv: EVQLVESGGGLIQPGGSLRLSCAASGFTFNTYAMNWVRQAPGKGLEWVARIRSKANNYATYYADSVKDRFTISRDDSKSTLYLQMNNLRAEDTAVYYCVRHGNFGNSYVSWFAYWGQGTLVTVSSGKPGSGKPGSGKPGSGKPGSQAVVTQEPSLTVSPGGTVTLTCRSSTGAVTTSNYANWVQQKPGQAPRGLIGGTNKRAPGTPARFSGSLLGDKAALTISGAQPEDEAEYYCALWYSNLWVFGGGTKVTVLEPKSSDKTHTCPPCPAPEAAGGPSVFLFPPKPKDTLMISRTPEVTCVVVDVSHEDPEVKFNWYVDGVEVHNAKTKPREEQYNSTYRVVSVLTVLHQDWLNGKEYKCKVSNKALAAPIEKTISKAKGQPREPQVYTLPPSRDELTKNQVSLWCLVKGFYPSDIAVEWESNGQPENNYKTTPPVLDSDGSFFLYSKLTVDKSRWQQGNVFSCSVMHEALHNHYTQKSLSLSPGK
notes: anti-CD37/anti-CD3
B7: BTE-0142 (bispecific antibody, human IgG1, kappa, L234A L235A)
heavy: B1 heavy
light: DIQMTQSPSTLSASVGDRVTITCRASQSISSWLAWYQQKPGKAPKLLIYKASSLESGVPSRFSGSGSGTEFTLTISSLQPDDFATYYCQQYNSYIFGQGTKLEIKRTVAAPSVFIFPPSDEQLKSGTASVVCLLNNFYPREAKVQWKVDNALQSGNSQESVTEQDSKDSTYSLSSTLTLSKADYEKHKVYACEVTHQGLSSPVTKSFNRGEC
scFv: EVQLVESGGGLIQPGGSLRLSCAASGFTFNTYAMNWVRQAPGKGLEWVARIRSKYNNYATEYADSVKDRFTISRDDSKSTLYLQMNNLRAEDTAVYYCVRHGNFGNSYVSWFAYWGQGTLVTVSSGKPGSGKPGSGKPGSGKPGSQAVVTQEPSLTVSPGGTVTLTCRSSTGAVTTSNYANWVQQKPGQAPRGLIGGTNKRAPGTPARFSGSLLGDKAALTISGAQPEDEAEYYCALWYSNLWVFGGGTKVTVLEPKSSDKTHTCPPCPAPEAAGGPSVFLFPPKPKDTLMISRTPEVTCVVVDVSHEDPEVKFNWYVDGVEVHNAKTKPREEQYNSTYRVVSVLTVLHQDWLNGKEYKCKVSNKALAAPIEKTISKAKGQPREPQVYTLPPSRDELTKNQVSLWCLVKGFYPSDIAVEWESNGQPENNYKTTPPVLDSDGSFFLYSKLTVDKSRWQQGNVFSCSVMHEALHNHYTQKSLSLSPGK
notes: anti-CD37/anti-CD3
B8: BTE-0137 (bispecific antibody, human IgG1, kappa, L234A L235A)
heavy: B1 heavy
light: not shown
scFv: not shown
notes: anti-CD37/anti-CD3
B9: BTE-0143 (bispecific antibody, human IgG1, kappa, L234A L235A)
heavy: B1 heavy
light: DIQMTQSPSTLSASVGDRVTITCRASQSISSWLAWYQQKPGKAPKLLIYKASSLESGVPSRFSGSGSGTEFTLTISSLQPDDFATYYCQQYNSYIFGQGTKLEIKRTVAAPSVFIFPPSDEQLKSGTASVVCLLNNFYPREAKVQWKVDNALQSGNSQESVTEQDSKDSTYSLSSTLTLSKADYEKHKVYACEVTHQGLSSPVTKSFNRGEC
scFv: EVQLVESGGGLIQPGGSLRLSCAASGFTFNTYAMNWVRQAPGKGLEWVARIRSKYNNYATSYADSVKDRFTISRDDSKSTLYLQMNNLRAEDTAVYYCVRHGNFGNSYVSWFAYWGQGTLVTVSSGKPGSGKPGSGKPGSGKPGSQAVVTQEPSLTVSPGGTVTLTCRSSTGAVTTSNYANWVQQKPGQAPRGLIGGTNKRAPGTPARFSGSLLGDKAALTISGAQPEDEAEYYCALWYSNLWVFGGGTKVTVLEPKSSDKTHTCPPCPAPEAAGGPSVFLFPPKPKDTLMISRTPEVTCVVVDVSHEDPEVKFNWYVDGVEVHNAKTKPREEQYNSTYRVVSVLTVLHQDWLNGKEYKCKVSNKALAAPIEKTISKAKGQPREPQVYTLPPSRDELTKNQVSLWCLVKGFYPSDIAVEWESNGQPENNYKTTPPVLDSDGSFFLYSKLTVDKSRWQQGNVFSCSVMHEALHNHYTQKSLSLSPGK
notes: anti-CD37/anti-CD3
B10: BTE-0145 (bispecific antibody, human IgG1, kappa, L234A L235A)
heavy: B1 heavy
light: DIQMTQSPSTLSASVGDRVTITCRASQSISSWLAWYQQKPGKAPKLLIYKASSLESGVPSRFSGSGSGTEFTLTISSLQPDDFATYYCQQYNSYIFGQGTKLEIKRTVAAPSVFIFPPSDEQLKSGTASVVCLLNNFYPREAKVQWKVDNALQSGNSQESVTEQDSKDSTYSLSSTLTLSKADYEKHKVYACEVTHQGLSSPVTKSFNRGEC
scFv: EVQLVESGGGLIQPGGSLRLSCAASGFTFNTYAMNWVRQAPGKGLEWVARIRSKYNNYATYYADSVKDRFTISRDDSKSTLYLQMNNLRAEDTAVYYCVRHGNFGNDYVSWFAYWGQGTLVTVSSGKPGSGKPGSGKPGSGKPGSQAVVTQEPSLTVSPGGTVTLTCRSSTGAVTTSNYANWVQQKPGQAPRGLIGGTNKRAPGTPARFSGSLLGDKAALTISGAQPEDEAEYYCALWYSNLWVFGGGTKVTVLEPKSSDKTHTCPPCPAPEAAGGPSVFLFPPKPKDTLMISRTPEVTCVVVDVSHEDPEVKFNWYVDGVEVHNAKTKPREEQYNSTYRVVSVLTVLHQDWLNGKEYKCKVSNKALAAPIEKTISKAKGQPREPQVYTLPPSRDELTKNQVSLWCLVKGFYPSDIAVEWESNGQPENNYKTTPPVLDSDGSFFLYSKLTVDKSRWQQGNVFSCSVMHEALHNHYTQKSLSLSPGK
notes: anti-CD37/anti-CD3
B11: BTE-0138 (bispecific antibody, human IgG1, kappa, L234A L235A)
heavy: B1 heavy
light: not shown
scFv: not shown
notes: anti-CD37/anti-CD3
B12: BTE-0144 (bispecific antibody, human IgG1, kappa, L234A L235A)
heavy: B1 heavy
light: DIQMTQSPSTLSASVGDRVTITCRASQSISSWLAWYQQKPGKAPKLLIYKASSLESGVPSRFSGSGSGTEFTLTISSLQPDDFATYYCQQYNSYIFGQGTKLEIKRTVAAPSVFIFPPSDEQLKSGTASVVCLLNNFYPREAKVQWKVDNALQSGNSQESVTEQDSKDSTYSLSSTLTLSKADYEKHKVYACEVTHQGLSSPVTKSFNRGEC
scFv: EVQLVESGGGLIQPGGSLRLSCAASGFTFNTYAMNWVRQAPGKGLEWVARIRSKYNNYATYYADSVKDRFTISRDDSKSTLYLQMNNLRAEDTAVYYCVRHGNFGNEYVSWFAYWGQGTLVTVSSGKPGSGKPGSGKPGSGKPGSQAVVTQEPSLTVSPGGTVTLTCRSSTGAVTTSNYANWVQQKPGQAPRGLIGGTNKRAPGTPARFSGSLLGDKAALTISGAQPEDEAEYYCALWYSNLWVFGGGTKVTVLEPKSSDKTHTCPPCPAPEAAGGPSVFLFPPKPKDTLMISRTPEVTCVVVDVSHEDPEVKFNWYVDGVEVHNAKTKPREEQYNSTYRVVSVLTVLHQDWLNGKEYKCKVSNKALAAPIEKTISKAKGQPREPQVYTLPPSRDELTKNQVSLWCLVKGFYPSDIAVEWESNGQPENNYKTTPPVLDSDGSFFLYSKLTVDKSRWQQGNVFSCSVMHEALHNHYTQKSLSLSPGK
notes: anti-CD37/anti-CD3
B13: BTE-0136 (bispecific antibody, human IgG1, kappa, L234A L235A)
heavy: B1 heavy
light: not shown
scFv: not shown
notes: anti-CD37/anti-CD3
B14: BTE-0152 (bispecific antibody, human IgG1, kappa, L234A L235A)
heavy: B1 heavy
light: not shown
scFv: not shown
notes: anti-CD37/anti-CD3
B15: BTE-0149 (bispecific antibody, human IgG1, kappa, L234A L235A)
heavy: B1 heavy
light: not shown
scFv: not shown
notes: anti-CD37/anti-CD3
B16: BTE-0148 (bispecific antibody, human IgG1, kappa, L234A L235A)
heavy: B1 heavy
light: not shown
scFv: not shown
notes: anti-CD37/anti-CD3

The target of this test is T1, CD3εδ complex protein (human; alpaca, UniProt P07766 23-126; P04234 22-105).
T1 construct: they are not part of the secreted protein; also called human CD3; CD386 complex protein
T1 sequence (P07766 23-126 limits assumed, stated change not applied, form in doubt, chain 1 of 2): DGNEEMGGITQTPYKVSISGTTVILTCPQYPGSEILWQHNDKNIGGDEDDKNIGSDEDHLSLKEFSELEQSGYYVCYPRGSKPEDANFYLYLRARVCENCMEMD
T1 sequence (P04234 22-105 limits assumed, stated change not applied, form in doubt, chain 2 of 2): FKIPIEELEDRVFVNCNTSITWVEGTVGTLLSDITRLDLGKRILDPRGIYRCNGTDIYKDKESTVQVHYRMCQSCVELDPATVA
Briefly: ELISA, CD3 complex immobilized. As for the experimental part: Binding activities of the anti-TSPAN8/anti-CD3 bispecific antibodies BTE-0001 to BTE-0067 to CD3 were evaluated by the ELISA. ELISA was performed according to a conventional method. The […] complex protein obtained in Example 1-3 was immobilized on a plate. BTE-0001 to BTE-0067 were used as the test antibodies. As a secondary antibody, Goat anti-Human IgG Fc, Multi-Species SP ads-HRP (2014-05, available from SouthernBiotech) was used. TMB+Substrate-Chromogen (S1599, available from Dako) was used as the detection reagent. Infinite M200pro (available from Tecan) was used to measure the absorbance. The EC50 values were calculated using variable slope model (four parameters) in GraphPad Prism with the maximum value in the same plate fixed at the top and the minimum value in the blank in the same plate fixed at the bottom. Since BTE-0001 was always measured in each plate as a control, only the EC50 value of BTE-0001 was expressed as the average value of a plurality of plates. […]
In turn, B1 returned a concentration giving a half-maximal response (EC50) of 0.0747 µg/mL. In the case of B2 it was 0.444 µg/mL; in that of B3, 0.488 µg/mL; in that of B4, 0.205 µg/mL. B5 had an EC50 of 0.0317 µg/mL. In the case of B6 it was 0.029 µg/mL; in that of B7, 0.292 µg/mL; in that of B8, 1.6 µg/mL.

Molecule B9 gave an EC50 of 0.0644 µg/mL. In the case of B10 it was 0.0854 µg/mL. In turn, B11 gave an EC50 of 0.071 µg/mL. In the case of B12 it was 0.138 µg/mL; in that of B13, 0.0669 µg/mL; in that of B14, 0.36 µg/mL. In the case of B15 it was 0.209 µg/mL. In the case of B16 it was 0.0364 µg/mL.

For the origin of these results see patent US20250304706A1 (Astellas, published 2025).
